Data set [1] deals with AsiA M1A mutant (bacteriophage T4) (UniProt P32267). Put plainly: AUC.
The target is the same in data set [2]. Briefly: dynamic light scattering.
Data set [3] deals with the molecule itself. Put plainly: dynamic light scattering.
Data set [4] concerns the molecule itself. Briefly: AUC.
Data set [5] deals with the molecule itself. Put plainly: AUC. The source holds these as a separate data set.
Data set [6] addresses σ^70 subunit of Escherichia coli RNA polymerase (E. coli, UniProt P00579 1-613). Put plainly: native gel or EMSA. For orientation: Mobility shift assays separate free from complexed probe on a gel.

Read-outs that look alike come from different tables or passages of the source.

For the molecule “AsiA M1A mutant (from UniProt P32267 1-90) (natural protein)”, in data set [1], the Ka was found to be 3.8e+06 M⁻¹; the equilibrium dissociation constant (Kd) (usually the constant that tells how readily two partners part at equilibrium) is 260 nM; the stoichiometry N (commonly the number of molecules, sites or subunits per partner or assembly) turned out to be 2. The stoichiometry N in data set [2] is 2.

B1: AsiA protein (wild type) (natural protein, bacteriophage T4, UniProt P32267 1-90, looked up)
chain: MNKNIDTVREIITVASILIKFSREDIVENRANFIAFLNEIGVTHEGRKLNQNSFRKIVSELTQEDKKTLIDEFNEGFEGVYRYLEMYTNK
On to B1, for which the “stoichiometry N” value in data set [3] was determined as 2. Besides, in data set [4], the Ka came to 2.8e+06 M⁻¹ and the affinity, expressed as Kd, was 350 nM.

B2: AsiA F21A mutant (natural protein, bacteriophage T4, UniProt P32267 1-90, looked up)
chain: MNKNIDTVREIITVASILIKASREDIVENRANFIAFLNEIGVTHEGRKLNQNSFRKIVSELTQEDKKTLIDEFNEGFEGVYRYLEMYTNK
For B2, the “stoichiometry N” value in data set [3] worked out at 2. Moreover, in data set [4], the Ka was 4.7e+06 M⁻¹ and binding was put at a Kd of 210 nM.

B3: AsiA I40A mutant (natural protein, bacteriophage T4, UniProt P32267 1-90, looked up)
chain: MNKNIDTVREIITVASILIKFSREDIVENRANFIAFLNEAGVTHEGRKLNQNSFRKIVSELTQEDKKTLIDEFNEGFEGVYRYLEMYTNK
Take B3: the “stoichiometry N” value in data set [3] is 2. For the same molecule, in data set [4], the Ka stood at 360000 M⁻¹ and the Kd stood at 2700 nM.

B4: AsiA V14A mutant (natural protein, bacteriophage T4, UniProt P32267 1-90, looked up)
chain: MNKNIDTVREIITAASILIKFSREDIVENRANFIAFLNEIGVTHEGRKLNQNSFRKIVSELTQEDKKTLIDEFNEGFEGVYRYLEMYTNK
As to B4, the “stoichiometry N” value in data set [3] is 2. In data set [4], this molecule yielded a Ka of 820000 M⁻¹ and a Kd of 1200 nM.

B5: AsiA K20A mutant (natural protein, bacteriophage T4, UniProt P32267 1-90, looked up)
chain: MNKNIDTVREIITVASILIAFSREDIVENRANFIAFLNEIGVTHEGRKLNQNSFRKIVSELTQEDKKTLIDEFNEGFEGVYRYLEMYTNK
For the molecule B5, the “stoichiometry N” value in data set [3] came to 2. Moreover, in data set [4], the Ka was 2.1e+06 M⁻¹ and the Kd was found to be 480 nM.

B6: AsiA E39A mutant (natural protein, bacteriophage T4, UniProt P32267 1-90, looked up)
chain: MNKNIDTVREIITVASILIKFSREDIVENRANFIAFLNAIGVTHEGRKLNQNSFRKIVSELTQEDKKTLIDEFNEGFEGVYRYLEMYTNK
As for B6, the “stoichiometry N” value in data set [3] amounted to 2. Also, in data set [4], the Ka is 5.7e+06 M⁻¹ and the Kd came to 180 nM.

B7: AsiA I17A mutant (natural protein, bacteriophage T4, UniProt P32267 1-90, looked up)
chain: MNKNIDTVREIITVASALIKFSREDIVENRANFIAFLNEIGVTHEGRKLNQNSFRKIVSELTQEDKKTLIDEFNEGFEGVYRYLEMYTNK
As for B7, the “stoichiometry N” value in data set [3] turned out to be 2. In data set [4], this molecule had a Ka of 200000 M⁻¹ and a Kd of 4900 nM.

B8: AsiA I17A/I40A double mutant (natural protein, bacteriophage T4, UniProt P32267 1-90, looked up)
chain: MNKNIDTVREIITVASALIKFSREDIVENRANFIAFLNEAGVTHEGRKLNQNSFRKIVSELTQEDKKTLIDEFNEGFEGVYRYLEMYTNK
As to B8, in data set [5], the Ka stood at 1400 M⁻¹ and the Kd came to 694000 nM.

B9: AsiA L18A mutant (natural protein, bacteriophage T4, UniProt P32267 1-90, looked up)
chain: MNKNIDTVREIITVASIAIKFSREDIVENRANFIAFLNEIGVTHEGRKLNQNSFRKIVSELTQEDKKTLIDEFNEGFEGVYRYLEMYTNK
With B9, in data set [6], the binding result is reported as “binds”.

Values taken from publication PMC2929534 (Biochemistry, 2010).
